The results in this text go back to patent publication US20190177371A1 (published 2019).

The target in assay [1] is T1, human melanocortin 1 receptor (human, UniProt Q01726 1-317). The experiment in a line: cell-based or functional assay.
Assay [2] addresses T1, human melanocortin 1 receptor. The experiment in a line: competition binding vs [125I]-NDP-α-MSH, whole HEK293 cells stably expressing the receptor.
Assay [3] shares this target. The experiment in a line: competition binding vs [125I]-NDP-α-MSH, A375 human melanoma cells.

T1 sequence (Q01726 whole entry): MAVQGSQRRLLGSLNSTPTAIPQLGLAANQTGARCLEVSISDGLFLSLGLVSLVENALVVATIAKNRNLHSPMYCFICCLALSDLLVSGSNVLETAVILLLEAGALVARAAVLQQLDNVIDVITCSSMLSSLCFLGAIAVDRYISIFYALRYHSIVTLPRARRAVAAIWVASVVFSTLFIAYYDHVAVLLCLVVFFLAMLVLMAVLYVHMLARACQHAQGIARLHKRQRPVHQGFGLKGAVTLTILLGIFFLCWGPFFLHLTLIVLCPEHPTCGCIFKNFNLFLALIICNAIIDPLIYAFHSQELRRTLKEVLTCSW

B1: Peptide 28: Ac-Nle-c[Asp-(NMe)His-nal-(NMe)Arg-(NMe)Trp-(NMe)Lys]-NH2 (peptide)
peptide: LDHXRWK
modifications: N-terminal acetyl; Nle at 4; D-Nal(2') (nal) at 7; side-chain lactam Asp5-Lys10; C-terminal amide; backbone N-methyl on His6, Arg8, Trp9 and Lys10 (α-MSH 4-10 numbering)
For the molecule B1, the “EC50 (cAMP)” value in assay [1] came to 20 nM.

B2: Peptide 32: Ac-Nle-c[Asp-(NMe)His-(NMe)nal-(NMe)Arg-(NMe)Trp-(NMe)Lys]-NH2 (peptide)
peptide: LDHXRWK
modifications: N-terminal acetyl; Nle at 4; D-Nal(2') (nal) at 7; side-chain lactam Asp5-Lys10; C-terminal amide; backbone N-methyl on His6, nal7, Arg8, Trp9 and Lys10 (α-MSH 4-10 numbering)
notes: also called Penta-N-methylated compound 32
As a reminder, the IC50 is the midpoint of a concentration-inhibition curve. A lower IC50 goes with greater potency. As to B2, the IC50 in assay [2] was 68 nM.

B3: Peptide 15: Ac-Nle-c[Asp-(NMe)His-nal-(NMe)Arg-Trp-Lys]-NH2 (peptide)
peptide: LDHXRWK
modifications: N-terminal acetyl; Nle at 4; D-Nal(2') (nal) at 7; side-chain lactam Asp5-Lys10; C-terminal amide; backbone N-methyl on His6 and Arg8 (α-MSH 4-10 numbering)
In the case of B3, in assay [1], the “EC50 (cAMP)” value stood at 22 nM. For the same molecule, the IC50 in assay [3] is 14.8 nM.
